Assay results from publication PMC9814530 (2022).
Where no end group is shown, it is not given here.

B1: ACE2-binding peptide ABP C1 (peptide)
chain: LFRGYFAAMNNLK-NH2
modifications: also: biotinylated, position not given here
B2: ACE2-binding peptide ABP C4 (peptide)
chain: LKVKYMWDYLFGK-NH2
modifications: also: biotinylated, position not given here
B3: ACE2-binding peptide ABP C2 (peptide)
chain: LHFAKWNHVWSWK-NH2
modifications: also: biotinylated, position not given here

Molecular target: human angiotensin converting enzyme 2 (ACE2), recombinant (human, UniProt Q9BYF1 18-740)
Test: BLI

Sequence of human angiotensin converting enzyme 2 (ACE2), recombinant (Q9BYF1 18-740): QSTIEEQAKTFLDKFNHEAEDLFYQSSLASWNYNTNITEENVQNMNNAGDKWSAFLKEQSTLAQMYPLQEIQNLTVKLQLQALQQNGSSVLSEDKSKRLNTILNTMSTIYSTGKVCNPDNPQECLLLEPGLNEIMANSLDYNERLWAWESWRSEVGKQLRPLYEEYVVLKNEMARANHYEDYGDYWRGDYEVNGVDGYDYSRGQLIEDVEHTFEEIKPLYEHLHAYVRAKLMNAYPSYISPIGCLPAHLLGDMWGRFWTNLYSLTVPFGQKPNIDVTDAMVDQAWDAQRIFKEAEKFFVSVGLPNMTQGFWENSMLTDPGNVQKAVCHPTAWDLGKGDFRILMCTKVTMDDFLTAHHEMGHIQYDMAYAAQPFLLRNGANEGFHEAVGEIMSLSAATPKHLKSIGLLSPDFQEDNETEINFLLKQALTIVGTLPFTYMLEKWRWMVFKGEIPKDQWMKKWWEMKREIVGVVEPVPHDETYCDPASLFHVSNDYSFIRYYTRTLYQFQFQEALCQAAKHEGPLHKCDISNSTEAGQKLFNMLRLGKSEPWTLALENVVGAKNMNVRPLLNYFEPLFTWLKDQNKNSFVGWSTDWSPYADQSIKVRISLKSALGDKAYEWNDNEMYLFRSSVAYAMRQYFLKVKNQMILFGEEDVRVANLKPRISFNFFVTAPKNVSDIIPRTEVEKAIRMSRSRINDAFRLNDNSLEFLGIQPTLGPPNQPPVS

| Binder | Kd |
| --- | --- |
| B1 | 66 nM |
| B2 | 58 nM |
| B3 | 57 nM |
